Holding throughout (assay): pyrophosphate release, enzyme-coupled colorimetric assay
What all share (assay type): biochemical, Mycolicibacterium smegmatis
Common to all, as to settings: 20 mM Tris-HCl pH 7.5, 5 mM MgSO4, 100 mM NaCl, 37°C

Substrate in data set [1]: Nc1nc(=O)n([C@H]2C[C@H](O)[C@@H](COP(=O)(O)OP(=O)(O)OP(=O)(O)O)O2)cc1O
Substrate in data set [2]: Nc1nc(O)nc2c1ncn2[C@H]1C[C@H](O)[C@@H](COP(=O)(O)OP(=O)(O)OP(=O)(O)O)O1
Substrate in data set [3]: O=Cc1cn([C@H]2C[C@H](O)[C@@H](COP(=O)(O)OP(=O)(O)OP(=O)(O)O)O2)c(=O)[nH]c1=O

Data on one protein can be found in article PMC3855555.

B1: Msm MazG (Mycolicibacterium smegmatis MC2 155) (protein)
chain: MIVVLVDPRRPALVPVDAVEFLTGDVQYTEEMPVKVPWSLPSARPAYDGEDAPVLLSSDPEHPVVKARLAAGDRLIAAPEPQPGERLVDAVALMDKLRTSGPWESEQTHDSLRRYLLEETYELFDAVRSGNADELREELGDVLLQVLFHARIAEDAPHHPFSIDDVADALVRKLGNRVPAVLAGESISLDEQLAQWEERKAQEKKVKARASSMDDVPTGQPALALAQKVLARVSQAGLPAELIPASLTSVSVSADTDSENELRTAVLEFMDTVREVEAAVAAGRRGEDVPEELDVAPLGVISEDEWRAYWPGAESSASEAEPEE
notes: heterologously expressed, purified to nearly SDS-PAGE homogeneity; strain given for the bacteria, not for the protein
As to B1, the results for the Km in data set [1], in data set [2] and in data set [3] were 5.6 ± 2.2 µM, 311 µM and 434 ± 82 µM, respectively. In addition, the kcat (commonly the number of substrate molecules converted per active site and unit of time at saturation) in data set [1] amounted to 0.013 s⁻¹; in data set [3], 1 s⁻¹.
